Assay [1] concerns the target T1, recombinant mature myostatin (human, UniProt O14793 267-375).
T1 sequence (looked up): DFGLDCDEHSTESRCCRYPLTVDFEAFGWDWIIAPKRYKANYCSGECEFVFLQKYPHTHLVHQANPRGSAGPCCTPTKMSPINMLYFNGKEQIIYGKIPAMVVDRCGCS
Description: cell-based or functional assay.

Assay [2] has as its target T1, recombinant mature myostatin. As to the kind of experiment: cell-based or functional assay. This is another data set of the same source.

On to QGHCTRWPWMCPPY [TN8-19 peptide], for which the “IC50 (read off the curve)” value in assay [1] was about 20 µM.

B1: recombinant human activin receptor IIB/Fc chimera (Fc fusion, UniProt Q13705 19-134, looked up, not shown: a dimerising Fc or GST)
chain: SGRGEAETRECIYYNANWELERTNQSGLERCEGEQDKRLHCYASWRNSSGTIELVKKGCWLDDFNCYDRQECVATEENPQVYFCCCEGNFCNERFTHLPEAGGPEVTYEPPPTAPT
As for B1, the “IC50 (C2C12 pMARE-luc)” value in assay [2] was about 83 nM.

Values taken from patent US20040181033A1 (Amgen, published 2004).
